Results published in patent publication US20150329614A1 (Novartis, published 2015).

Molecular target: T1, rec. human IGF-1R (R&D Systems, 391-GR) (human, UniProt P08069 31-932)
T1 construct: Bought soluble protein, used as the analyte in SPR; also called rhIGF1R; recombinant human IGF-1R
Assay: SPR (Biacore T200), ligand immobilised on CM5 chip, rec. human IGF-1R as analyte, 1:1 model
Experimental: The binding properties were characterized by SPR using a Biacore T200 instrument at 25° C. […] The analyte concentration ranges were adapted to the individual interaction and ranged from 1000-3.9 nM (IGF-1R). […] Kinetic rate constants and KD were calculated by fitting double-referenced sensorgrams to a 1:1 binding model.
A direct binding assay was performed. […] The resulting sensorgrams were fitted to a 1:1 interaction model to calculate the equilibrium dissociation constants (KD).

T1 sequence (P08069 31-932 limits assumed): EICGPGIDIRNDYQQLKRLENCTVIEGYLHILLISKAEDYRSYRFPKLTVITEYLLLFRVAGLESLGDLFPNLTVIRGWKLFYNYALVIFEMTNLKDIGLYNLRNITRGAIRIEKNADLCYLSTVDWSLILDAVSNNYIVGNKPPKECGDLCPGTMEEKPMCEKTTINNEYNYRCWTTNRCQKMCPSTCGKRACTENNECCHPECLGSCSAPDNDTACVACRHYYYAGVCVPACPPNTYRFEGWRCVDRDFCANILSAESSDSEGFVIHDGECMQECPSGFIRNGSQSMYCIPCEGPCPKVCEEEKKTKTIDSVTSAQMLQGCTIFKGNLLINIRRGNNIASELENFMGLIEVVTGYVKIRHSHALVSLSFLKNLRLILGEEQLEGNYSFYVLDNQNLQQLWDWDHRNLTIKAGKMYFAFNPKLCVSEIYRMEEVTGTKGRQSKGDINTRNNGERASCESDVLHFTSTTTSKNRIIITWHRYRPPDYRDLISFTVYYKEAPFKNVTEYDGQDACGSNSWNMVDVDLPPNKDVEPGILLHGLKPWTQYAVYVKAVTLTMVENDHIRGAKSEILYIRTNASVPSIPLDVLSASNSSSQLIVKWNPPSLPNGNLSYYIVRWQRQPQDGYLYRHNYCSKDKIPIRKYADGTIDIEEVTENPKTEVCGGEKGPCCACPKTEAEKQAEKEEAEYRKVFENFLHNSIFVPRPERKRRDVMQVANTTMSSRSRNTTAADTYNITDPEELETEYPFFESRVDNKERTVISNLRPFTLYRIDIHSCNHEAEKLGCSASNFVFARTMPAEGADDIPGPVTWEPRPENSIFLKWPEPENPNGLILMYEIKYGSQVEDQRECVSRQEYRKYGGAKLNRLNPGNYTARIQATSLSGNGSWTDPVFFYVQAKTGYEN

binding result: binds
B1: hIGF-1-Ea-Fc_mut 13/2_A (Fc fusion)
chain: TLCGAELVDALQFVCGDRGFYFNKPTGYGSSSQAAPQTSIVDECCFRSCDLRRLEMYCAPLKPAVQAQQHTDMPKTQKEVHLKNASRGSAGNKNYQMCPPCPAPEAAGGPSVFLFPPKPKDTLMISRTPEVTCVVVDVSHEDPEVKFNWYVDGVEVHNAKTKPREEQYNSTYRVVSVLTVLHQDWLNGKEYKCKVSNKALPAPIEKTISKAKGQPREPQVYTLPPSREEMTKNQVSLTCLVKGFYPSDIAVEWESNGQPENNYKTTPPVLDSDGSFFLYSKLTVDKSRWQQGNVFSCSVMHEALHNHYTQKSLSLSPGK
notes: Modified human IGF-1-Ea precursor joined by hinge 1 to a hIgG1 LALA Fc
